In the supplement of paper PMC5998384:

Legend:
[1] = system: HeLa Kyoto; assay: solubility in G1/S (NP-40 vs SDS abundance) (log2 ratio); higher = more soluble; details: cell cycle stage: G1/S
[2] = system: HeLa Kyoto; assay: melting temperature (median over replicates), in situ; higher = more thermally stable
[3] = system: HeLa Kyoto; assay: solubility change mitosis vs G1/S (difference of NP-40 vs SDS log2 ratios) (log2 ratio difference); higher = more soluble in mitosis
[4] = system: HeLa Kyoto; assay: thermal stability score vs G1/S (z-score of summed log2 fold changes over temperatures); higher = more thermally stable than in G1/S
[5] = cell cycle stage: early G1 (4.5 h after nocodazole release)
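Throughout, for melting temperature (median over replicates), in situ: HeLa Kyoto cells synchronized by double thymidine or nocodazole block, proteins quantified by TMT10plex mass spectrometry, three independent biological replicates.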
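Throughout, for solubility change mitosis vs G1/S (difference of NP-40 vs SDS log2 ratios): synchronized HeLa Kyoto cells (double thymidine block for G1/S, nocodazole release for mitosis), protein amounts in NP-40 versus SDS lysates quantified by mass spectrometry, three biological replicates.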
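Throughout, for solubility in G1/S (NP-40 vs SDS abundance): HeLa Kyoto cells arrested at G1/S by double thymidine block, proteins quantified by TMT10plex mass spectrometry in mild NP-40 versus SDS extracts, three biological replicates.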
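Throughout, for thermal stability score vs G1/S (z-score of summed log2 fold changes over temperatures): synchronized HeLa Kyoto cells, proteins quantified by TMT10plex mass spectrometry, three biological replicates, mitosis taken 0.5 h after nocodazole release, G1/S directly after double thymidine block.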

Sequence of PTBP3 (chain, as listed by the source): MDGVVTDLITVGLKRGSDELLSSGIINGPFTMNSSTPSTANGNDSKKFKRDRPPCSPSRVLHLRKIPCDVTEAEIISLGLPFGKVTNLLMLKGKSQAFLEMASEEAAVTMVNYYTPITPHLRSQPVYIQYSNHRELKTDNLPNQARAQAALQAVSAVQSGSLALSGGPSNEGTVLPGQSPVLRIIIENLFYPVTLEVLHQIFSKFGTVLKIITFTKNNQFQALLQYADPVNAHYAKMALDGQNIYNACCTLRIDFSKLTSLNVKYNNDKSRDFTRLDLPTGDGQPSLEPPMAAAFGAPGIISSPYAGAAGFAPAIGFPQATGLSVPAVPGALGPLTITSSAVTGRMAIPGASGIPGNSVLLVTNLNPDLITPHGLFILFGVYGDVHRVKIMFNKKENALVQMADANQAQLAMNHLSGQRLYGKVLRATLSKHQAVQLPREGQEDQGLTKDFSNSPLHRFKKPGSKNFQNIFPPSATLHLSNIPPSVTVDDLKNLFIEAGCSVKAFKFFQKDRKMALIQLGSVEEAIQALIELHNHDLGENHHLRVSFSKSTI

| Substance | solubility in G1/S (log2) [1] | melting temperature ([2]; cell cycle stage: G1/S) | melting temperature ([2]; cell cycle stage: mitosis) | solubility change mitosis (log2) [3] | thermal stability score [4, 5] | thermal stability score ([4]; cell cycle stage: mitosis) |
| --- | --- | --- | --- | --- | --- | --- |
| MAEMATATRLLGWRVASWRLRPPLAGFVSQRAHSLLPVDDAINGLSEEQRQLRQTMAKFLQEHLAPKAQEIDRSNEFKNLREFWKQLGNLGVLGITAPVQYGGSGLGYLEHVLVMEEISRASGAVGLSYGAHSNLCINQLVRNGNEAQKEKYLPKLISGEYIGALAMSEPNAGSDVVSMKLKAEKKGNHYILNGNKFWITNGPDADVLIVYAKTDLAAVPASRGITAFIVEKGMPGFSTSKKLDKLGMRGSNTCELIFEDCKIPAANILGHENKGVYVLMSGLDLERLVLAGGPLGLMQAVLDHTIPYLHVREAFGQKIGHFQLMQGKMADMYTRLMACRQYVYNVAKACDEGHCTAKDCAGVILYSAECATQVALDGIQCFGGNGYINDFPMGRFLRDAKLYEIGAGTSEVRRLVIGRAFNADFH [IVD] | 0.138 | 54 °C | 53.8 °C | -0.107 | -0.748 | -4.11 |
| MAAPPGEYFSVGSQVSCRTCQEQRLQGEVVAFDYQSKMLALKCPSSSGKPNHADILLINLQYVSEVEIINDRTETPPPLASLNVSKLASKARTEKEEKLSQAYAISAGVSLEGQQLFQTIHKTIKDCKWQEKNIVVMEEVVITPPYQVENCKGKEGSALSHVRKIVEKHFRDVESQKILQRSQAQQPQKEAALSS [LSM12] | -0.264 | 52.3 °C | 52.3 °C | 0.105 | -0.688 | -0.784 |
| MSQGDSNPAAIPHAAEDIQGDDRWMSQHNRFVLDCKDKEPDVLFVGDSMVQLMQQYEIWRELFSPLHALNFGIGGDTTRHVLWRLKNGELENIKPKVIVVWVGTNNHENTAEEVAGGIEAIVQLINTRQPQAKIIVLGLLPRGEKPNPLRQKNAKVNQLLKVSLPKLANVQLLDTDGGFVHSDGAISCHDMFDFLHLTGGGYAKICKPLHELIMQLLEETPEEKQTTIA [PAFAH1B2] | 0.628 | 49.5 °C | 51 °C | -0.079 | -0.13 | -0.102 |
| MVDLTQVMDDEVFMAFASYATIILSKMMLMSTATAFYRLTRKVFANPEDCVAFGKGENAKKYLRTDDRVERVRRAHLNDLENIIPFLGIGLLYSLSGPDPSTAILHFRLFVGARIYHTIAYLTPLPQPNRALSFFVGYGVTLSMAYRLLKSKLYL [MGST1] | -0.321 | 56.8 °C | 58 °C | -0.17 | 0.0202 | -1.77 |
| BCOR | -0.157 | 47.6 °C | 50.1 °C | 0.38 | 0.368 | 1.08 |
| MTARGLALGLLLLLLCPAQVFSQSCVWYGECGIAYGDKRYNCEYSGPPKPLPKDGYDLVQELCPGFFFGNVSLCCDVRQLQTLKDNLQLPLQFLSRCPSCFYNLLNLFCELTCSPRQSQFLNVTATEDYVDPVTNQTKTNVKELQYYVGQSFANAMYNACRDVEAPSSNDKALGLLCGKDADACNATNWIEYMFNKDNGQAPFTITPVFSDFPVHGMEPMNNATKGCDESVDEVTAPCSCQDCSIVCGPKPQPPPPPAPWTILGLDAMYVIMWITYMAFLLVFFGAFFAVWCYRKRYFVSEYTPIDSNIAFSVNASDKGEASCCDPVSAAFEGCLRRLFTRWGSFCVRNPGCVIFFSLVFITACSSGLVFVRVTTNPVDLWSAPSSQARLEKEYFDQHFGPFFRTEQLIIRAPLTDKHIYQPYPSGADVPFGPPLDIQILHQVLDLQIAIENITASYDNETVTLQDICLAPLSPYNTNCTILSVLNYFQNSHSVLDHKKGDDFFVYADYHTHFLYCVRAPASLNDTSLLHDPCLGTFGGPVFPWLVLGGYDDQNYNNATALVITFPVNNYYNDTEKLQRAQAWEKEFINFVKNYKNPNLTISFTAERSIEDELNRESDSDVFTVVISYAIMFLYISLALGHMKSCRRLLVDSKVSLGIAGILIVLSSVACSLGVFSYIGLPLTLIVIEVIPFLVLAVGVDNIFILVQAYQRDERLQGETLDQQLGRVLGEVAPSMFLSSFSETVAFFLGALSVMPAVHTFSLFAGLAVFIDFLLQITCFVSLLGLDIKRQEKNRLDIFCCVRGAEDGTSVQASESCLFRFFKNSYSPLLLKDWMRPIVIAIFVGVLSFSIAVLNKVDIGLDQSLSMPDDSYMVDYFKSISQYLHAGPPVYFVLEEGHDYTSSKGQNMVCGGMGCNNDSLVQQIFNAAQLDNYTRIGFAPSSWIDDYFDWVKPQSSCCRVDNITDQFCNASVVDPACVRCRPLTPEGKQRPQGGDFMRFLPMFLSDNPNPKCGKGGHAAYSSAVNILLGHGTRVGATYFMTYHTVLQTSADFIDALKKARLIASNVTETMGINGSAYRVFPYSVFYVFYEQYLTIIDDTIFNLGVSLGAIFLVTMVLLGCELWSAVIMCATIAMVLVNMFGVMWLWGISLNAVSLVNLVMSCGISVEFCSHITRAFTVSMKGSRVERAEEALAHMGSSVFSGITLTKFGGIVVLAFAKSQIFQIFYFRMYLAMVLLGATHGLIFLPVLLSYIGPSVNKAKSCATEERYKGTERERLLNF [NPC1] | -0.0136 | 58.3 °C | 56.1 °C | -0.0644 | -3.38 | -3.22 |
| MAGRRVNVNVGVLGHIDSGKTALARALSTTASTAAFDKQPQSRERGITLDLGFSCFSVPLPARLRSSLPEFQAAPEAEPEPGEPLLQVTLVDCPGHASLIRTIIGGAQIIDLMMLVIDVTKGMQTQSAECLVIGQIACQKLVVVLNKIDLLPEGKRQAAIDKMTKKMQKTLENTKFRGAPIIPVAAKPGGPEAPETEAPQGIPELIELLTSQISIPTRDPSGPFLMSVDHCFSIKGQGTVMTGTILSGSISLGDSVEIPALKVVKKVKSMQMFHMPITSAMQGDRLGICVTQFDPKLLERGLVCAPESLHTVHAALISVEKIPYFRGPLQTKAKFHITVGHETVMGRLMFFSPAPDNFDQEPILDSFNFSQEYLFQEQYLSKDLTPAVTDNDEADKKAGQATEGHCPRQQWALVEFEKPVTCPRLCLVIGSRLDADIHTNTCRLAFHGILLHGLEDRNYADSFLPRLKVYKLKHKHGLVERAMDDYSVIGRSLFKKETNIQLFVGLKVHLSTGELGIIDSAFGQSGKFKIHIPGGLSPESKKILTPALKKRARAGRGEATRQEESAERSEPSQHVVLSLTFKRYVFDTHKRMVQSP [EEFSEC] | -0.248 | 49.3 °C | 51.2 °C | 0.119 | 2.19 | 3.12 |
| MEELLRRELGCSSVRATGHSGGGCISQGRSYDTDQGRVFVKVNPKAEARRMFEGEMASLTAILKTNTVKVPKPIKVLDAPGGGSVLVMEHMDMRHLSSHAAKLGAQLADLHLDNKKLGEMRLKEAGTVGRGGGQEERPFVARFGFDVVTCCGYLPQVNDWQEDWVVFYARQRIQPQMDMVEKESGDREALQLWSALQLKIPDLFRDLEIIPALLHGDLWGGNVAEDSSGPVIFDPASFYGHSEYELAIAGMFGGFSSSFYSAYHGKIPKAPGFEKRLQLYQLFHYLNHWNHFGSGYRGSSLNIMRNLVK [FN3KRP] | 0.12 | 61.1 °C | 58.3 °C | 0.00242 | -1.05 | -2.45 |
| MEEKPGQPQPQHHHSHHHPHHHPQQQQQQPHHHHHYYFYNHSHNHHHHHHHQQPHQYLQHGAEGSPKAQPKPLKHEQKHTLQQHQETPKKKTGYGELNGNAGEREISLKNLSSDEATNPISRVLNGNQQVVDTSLKQTVKANTFGKAGIKTKNFIQKNSMDKKNGKSYENKSGENQSVDKSDTIPIPNGVVTNNSGYITNGYMGKGADNDGSGSESGYTTPKKRKARRNSAKGCENLNIVQDKIMQQETSVPTLKQGLETFKPDYSEQKGNRVDGSKPIWKYETGPGGTSRGKPAVGDMLRKSSDSKPGVSSKKFDDRPKGKHASAVASKEDSWTLFKPPPVFPVDNSSAKIVPKISYASKVKENLNKTIQNSSVSPTSSSSSSSSTGETQTQSSSRLSQVPMSALKSVTSANFSNGPVLAGTDGNVYPPGGQPLLTTAANTLTPISSGTDSVLQDMSLTSAAVEQIKTSLFIYPSNMQTMLLSTAQVDLPSQTDQQNLGDIFQNQWGLSFINEPSAGPETVTGKSSEHKVMEVTFQGEYPATLVSQGAEIIPSGTEHPVFPKAYELEKRTSPQVLGSILKSGTTSESGALSLEPSHIGDLQKADTSSQGALVFLSKDYEIESQNPLASPTNTLLGSAKEQRYQRGLERNDSWGSFDLRAAIVYHTKEMESIWNLQKQDPKRIITYNEAMDSPDQ [NUFIP2] | -0.731 | 53.8 °C | 52.4 °C | 0.593 | -0.0647 | -0.912 |
| PTBP3 | -0.19 | 46.6 °C | 48 °C | 0.15 | 0.736 | 1.3 |
